Values quoted from earlier work in patent US20020192216A1, “Therapeutic use” (priority 1999, published 2002).

Test system: all three mammalian Hedgehog proteins
Settings: compared with Ptc

B1: HIP: membrane glycoprotein that binds Hedgehog proteins and attenuates Hedgehog signalling; GenBank AF116865 (protein, UniProt Q7TN16 18-700, looked up)
Hedgehog-interacting protein: FFEGDAKFGERNEGSGARRRRCLNGNPPKRLKRRDRRVMSQLELLSGGEILCGGFYPRVSCCLQSDSPGLGRLENKIFSATNNSECSRLLEEIQCAPCSPHSQSLFYTPERDVLDGDLALPLLCKDYCKEFFYTCRGHIPGLLQTTADEFCFYYARKDAGLCFPDFPRKQVRGPASNYLGQMEDYEKVGGISRKHKHNCLCVQEVMSGLRQPVSAVHSGDGSHRLFILEKEGYVKILTPEGELFKEPYLDIHKLVQSGIKGGDERGLLSLAFHPNYKKNGKLYVSYTTNQERWAIGPHDHILRVVEYTVSRKNPHQVDVRTARVFLEVAELHRKHLGGQLLFGPDGFLYIILGDGMITLDDMEEMDGLSDFTGSVLRLDVDTDMCNVPYSIPRSNPHFNSTNQPPEVFAHGLHDPGRCAVDRHPTDININLTILCSDSNGKNRSSARILQIIKGRDYESEPSLLEFKPFSNGPLVGGFVYRGCQSERLYGSYVFGDRNGNFLTLQQSPVTKQWQEKPLCLGASSSCRGYFSGHILGFGEDELGEVYILSSSKSMTQTHNGKLYKIVDPKRPLMPEECRVTVQPAQPLTSDCSRLCRNGYYTPTGKCCCSPGWEGDFCRIAKCEPACRHGGVCVRPNKCLCKKGYLGPQCEQVDRNVRRVTRAGILDQIIDMTSYLLDLTSYIV
  affinity for Hedgehog proteins: comparable to that of Ptc
